{"source": "paper PMC4610036", "about": "(Journal of molecular catalysis. B, Enzymatic, 2015)", "proteins": {"B1": {"name": "β-ketoacyl thiolase B of Ralstonia eutropha (enzyme, UniProt Q0KBP1 1-394, looked up)", "chain": "MTREVVVVSGVRTAIGTFGGSLKDVAPAELGALVVREALARAQVSGDDVGHVVFGNVIQTEPRDMYLGRVAAVNGGVTINAPALTVNRLCGSGLQAIVSAAQTILLGDTDVAIGGGAESMSRAPYLAPAARWGARMGDAGLVDMMLGALHDPFHRIHMGVTAENVAKEYDISRAQQDEAALESHRRASAAIKAGYFKDQIVPVVSKGRKGDVTFDTDEHVRHDATIDDMTKLRPVFVKENGTVTAGNASGLNDAAAAVVMMERAEAERRGLKPLARLVSYGHAGVDPKAMGIGPVPATKIALERAGLQVSDLDVIEANEAFAAQACAVTKALGLDPAKVNPNGSGISLGHPIGATGALITVKALHELNRVQGRYALVTMCIGGGQGIAAIFERI"}}, "molecular_target": "the molecule itself", "assay": "crystal structure", "data": [{"protein": "B1", "values": [{"measurement": "stoichiometry N", "value": 4}]}]}
